# Patent US20220236279A1 (LUXEMBOURG INSTITUTE OF HEALTH LIH, published 2022)
# No end group written: not given here.
# B1: delta-type opioid receptor (DOR) (receptor, UniProt P41143 1-372, looked up)
# chain: MEPAPSAGAELQPPLFANASDAYPSACPSAGANASGPPGARSASSLALAIAITALYSAVCAVGLLGNVLVMFGIVRYTKMKTATNIYIFNLALADALATSTLPFQSAKYLMETWPFGELLCKAVLSIDYYNMFTSIFTLTMMSVDRYIAVCHPVKALDFRTPAKAKLINICIWVLASGVGVPIMVMAVTRPRDGAVVCMLQFPSPSWYWDTVTKICVFLFAFVVPILIITVCYGLMLLRLRSVRLLSGSKEKDRSLRRITRMVLVVVGAFVVCWAPIHIFVIVWTLVDIDRRDPLVVAALHLCIALGYANSSLNPVLYAFLDENFKRCFRQLCRKPCGRPDPSSFSRAREATARERVTACTPSDGPGGGAAA
# notes: whole, on cells; C-terminally SmBiT-tagged in the NanoBiT assays; also called OPRD; DOP
# What was measured:
# [1] = target: mu-type opioid receptor (MOR) (UniProt P35372 1-400); assay: cell-based or functional assay
# Chain of mu-type opioid receptor (MOR) (P35372 whole entry): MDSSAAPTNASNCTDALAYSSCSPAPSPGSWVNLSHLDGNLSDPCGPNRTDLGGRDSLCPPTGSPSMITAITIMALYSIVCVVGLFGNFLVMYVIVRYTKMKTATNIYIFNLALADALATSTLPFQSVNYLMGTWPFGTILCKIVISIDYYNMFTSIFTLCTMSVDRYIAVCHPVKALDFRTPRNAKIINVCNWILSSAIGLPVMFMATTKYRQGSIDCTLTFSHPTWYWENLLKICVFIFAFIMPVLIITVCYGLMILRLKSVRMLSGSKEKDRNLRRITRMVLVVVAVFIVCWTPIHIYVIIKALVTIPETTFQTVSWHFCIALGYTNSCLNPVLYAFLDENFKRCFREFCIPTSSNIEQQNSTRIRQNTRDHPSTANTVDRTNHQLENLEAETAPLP
# [2] = target: B1; assay: cell-based or functional assay
# [3] = target: kappa-type opioid receptor (KOR) (UniProt P41145 1-380); assay: cell-based or functional assay
# Chain of kappa-type opioid receptor (KOR) (P41145 whole entry): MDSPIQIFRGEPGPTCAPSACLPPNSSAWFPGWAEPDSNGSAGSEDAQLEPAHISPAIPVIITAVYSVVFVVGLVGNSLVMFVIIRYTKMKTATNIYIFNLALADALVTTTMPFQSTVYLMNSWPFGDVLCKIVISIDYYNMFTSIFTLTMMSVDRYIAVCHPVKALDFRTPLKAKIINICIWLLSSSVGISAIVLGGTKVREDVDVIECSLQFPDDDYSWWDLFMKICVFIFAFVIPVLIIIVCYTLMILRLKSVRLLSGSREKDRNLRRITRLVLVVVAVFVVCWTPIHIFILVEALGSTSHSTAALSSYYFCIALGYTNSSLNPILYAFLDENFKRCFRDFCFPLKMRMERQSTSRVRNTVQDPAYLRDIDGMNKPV
# [4] = target: T1, human atypical chemokine receptor 3 (ACKR3) (human, UniProt P25106 1-362); assay: cell-based or functional assay
# T1 sequence (P25106 whole entry): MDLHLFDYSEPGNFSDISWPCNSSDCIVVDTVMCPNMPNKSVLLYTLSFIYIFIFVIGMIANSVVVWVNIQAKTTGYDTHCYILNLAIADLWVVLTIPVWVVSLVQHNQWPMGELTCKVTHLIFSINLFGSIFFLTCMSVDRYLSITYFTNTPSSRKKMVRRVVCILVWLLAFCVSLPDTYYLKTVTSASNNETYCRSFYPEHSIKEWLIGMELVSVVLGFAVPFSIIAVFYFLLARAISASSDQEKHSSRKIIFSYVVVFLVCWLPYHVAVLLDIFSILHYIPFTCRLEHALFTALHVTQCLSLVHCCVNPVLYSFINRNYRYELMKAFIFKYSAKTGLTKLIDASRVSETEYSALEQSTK
# [5] = target: T1, human atypical chemokine receptor 3 …; assay: flow cytometry competition with 5 nM CXCL12-AF647 on U87-ACKR3 cells
# From the text: Dead cells were excluded using Zombie Green viability dye (BioLegend). […] Ligand binding was quantified by mean fluorescence intensity on a BD FACS Fortessa cytometer (BD Biosciences).
# [6] = target: T2, human β-arrestin-1 N-terminally fused to LgBiT (human, UniProt P49407 1-418); assay: NanoBiT complementation in U87 cells (receptor-SmBiT, LgBiT-β-arrestin-1), induced by adrenorphin
# T2 construct: Co-expressed in U87 cells with SmBiT-tagged receptors; also called LgBiT-beta-arrestin-1; not shown: LgBiT (NanoBiT, Promega)
# T2 sequence (P49407 whole entry, the tested form may be a part): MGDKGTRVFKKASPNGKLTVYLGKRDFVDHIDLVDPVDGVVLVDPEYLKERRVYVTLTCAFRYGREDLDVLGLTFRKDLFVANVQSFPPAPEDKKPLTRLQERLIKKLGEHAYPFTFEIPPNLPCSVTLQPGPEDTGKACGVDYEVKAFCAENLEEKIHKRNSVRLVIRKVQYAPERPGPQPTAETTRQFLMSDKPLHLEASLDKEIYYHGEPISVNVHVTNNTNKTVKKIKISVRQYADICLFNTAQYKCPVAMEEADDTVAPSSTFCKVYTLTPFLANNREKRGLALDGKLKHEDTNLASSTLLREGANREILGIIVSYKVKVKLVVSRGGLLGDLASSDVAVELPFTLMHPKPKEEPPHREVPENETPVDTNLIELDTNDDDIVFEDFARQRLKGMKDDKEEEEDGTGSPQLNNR
# Procedure: 48 hours post-transfection cells were harvested, incubated 25 minutes at 37° C. with Nano-Glo Live Cell substrate diluted 200-fold and distributed into white 96-well plates (5×10⁴ cells per well). Ligand-induced, β-arrestin and mG recruitment to GPCRs was evaluated with a Mithras LB940 luminometer (Berthold Technologies) for 20 minutes. For concentration-response curves, the signal recorded with a saturating concentration of full agonist for each receptor was set as 100%.
# [7] = target: T3, C-X-C motif chemokine receptor 4 (CXCR4) (UniProt P61073 1-352); assay: flow cytometry, labelled peptide on U87-CXCR4 cells
# T3 construct: whole, on cells; Stably expressed in U87 cells (U87-CXCR4); C-terminally SmBiT-tagged in the NanoBiT assays
# T3 sequence (P61073 whole entry): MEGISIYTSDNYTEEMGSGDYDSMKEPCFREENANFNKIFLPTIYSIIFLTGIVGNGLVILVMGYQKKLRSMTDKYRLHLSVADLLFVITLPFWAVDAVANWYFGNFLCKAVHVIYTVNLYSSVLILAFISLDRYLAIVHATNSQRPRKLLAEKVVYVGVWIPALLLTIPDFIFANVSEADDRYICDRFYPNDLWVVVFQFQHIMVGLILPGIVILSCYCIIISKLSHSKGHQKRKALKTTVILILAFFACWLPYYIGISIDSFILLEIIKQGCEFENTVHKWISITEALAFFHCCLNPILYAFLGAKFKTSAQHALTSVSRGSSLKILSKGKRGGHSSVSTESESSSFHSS
binder,measurement,setting,value
FGGFMRRV-NH2 [adrenorphin Y1F variant (SEQ ID NO: 35; NH2-substituted at C-terminus)],"fold reduction of potency against WT adrenorphin, β-arrestin-1 recruitment",[1],> 100 fold
same,"fold reduction of potency against WT adrenorphin, β-arrestin-1 recruitment",[2],> 100 fold
same,"fold reduction of potency against WT adrenorphin, β-arrestin-1 recruitment",[3],> 100 fold
same,"fold change of potency against WT adrenorphin, β-arrestin-1 recruitment",[4],10 fold
GGFLRRIRPKLK-NH2 [dynorphin 2-13 (SEQ ID NO: 20; NH2-substituted at C-terminus)],binding result,[5],binds
B1,binding result,[6],binds
"FGGFMRRK (also: Cy5 label, site not given here, also called LIH383-Cy5; fluorescently labelled LIH383) [Cy-5-labelled LIH383]",binding result,[7],no binding
GGFLRRIRPKLKWDNQ [dynorphin 2-17 (SEQ ID NO: 19)],binding result,[5],binds
"H-FGGFMRRK-NH2 [LIH383, octapeptide FGGFMRRK (SEQ ID NO: 3; NH2-substituted at C-terminus)]","EC50, β-arrestin recruitment (NanoBiT)",[4],0.61 nM
